Test results taken from US20230250154A1 (CYTONICS, published 2023).
Where two headings read alike, the source gives them in different places.

Columns and labels:
Experiment in all cases: cell-based or functional assay
ADAMTS4 = biological target: T1, ADAMTS4 (human, UniProt O75173 213-685, limits assumed)
T1 sequence (looked up): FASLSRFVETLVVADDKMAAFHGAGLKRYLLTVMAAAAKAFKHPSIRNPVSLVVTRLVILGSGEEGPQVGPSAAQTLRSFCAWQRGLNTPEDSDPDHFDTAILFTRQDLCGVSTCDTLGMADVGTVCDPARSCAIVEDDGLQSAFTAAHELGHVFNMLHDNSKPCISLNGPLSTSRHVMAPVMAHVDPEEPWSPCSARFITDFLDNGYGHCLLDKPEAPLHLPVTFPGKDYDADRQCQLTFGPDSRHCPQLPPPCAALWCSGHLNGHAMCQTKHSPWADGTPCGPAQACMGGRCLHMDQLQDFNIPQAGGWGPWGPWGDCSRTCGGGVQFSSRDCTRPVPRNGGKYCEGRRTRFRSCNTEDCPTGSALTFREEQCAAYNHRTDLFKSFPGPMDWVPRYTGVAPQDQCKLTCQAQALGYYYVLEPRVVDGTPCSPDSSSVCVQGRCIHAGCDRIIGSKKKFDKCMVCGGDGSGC

ADAMTS5 = biological target: T2, ADAMTS5 (human, UniProt Q9UNA0 262-622, limits assumed)
T2 sequence (looked up): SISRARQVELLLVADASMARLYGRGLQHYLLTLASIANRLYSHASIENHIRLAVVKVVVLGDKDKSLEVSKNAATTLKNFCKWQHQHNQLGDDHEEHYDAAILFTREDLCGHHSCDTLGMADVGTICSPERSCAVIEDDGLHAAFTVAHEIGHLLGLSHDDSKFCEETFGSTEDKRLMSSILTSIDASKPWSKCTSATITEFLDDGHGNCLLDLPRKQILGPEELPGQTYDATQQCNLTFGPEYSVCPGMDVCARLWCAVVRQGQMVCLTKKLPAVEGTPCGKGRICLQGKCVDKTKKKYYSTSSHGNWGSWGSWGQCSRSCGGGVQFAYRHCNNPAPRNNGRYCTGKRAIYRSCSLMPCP

MMP1 [1] = biological target: T3, MMP1 (human, UniProt P03956 100-469, limits assumed)
T3 sequence (looked up): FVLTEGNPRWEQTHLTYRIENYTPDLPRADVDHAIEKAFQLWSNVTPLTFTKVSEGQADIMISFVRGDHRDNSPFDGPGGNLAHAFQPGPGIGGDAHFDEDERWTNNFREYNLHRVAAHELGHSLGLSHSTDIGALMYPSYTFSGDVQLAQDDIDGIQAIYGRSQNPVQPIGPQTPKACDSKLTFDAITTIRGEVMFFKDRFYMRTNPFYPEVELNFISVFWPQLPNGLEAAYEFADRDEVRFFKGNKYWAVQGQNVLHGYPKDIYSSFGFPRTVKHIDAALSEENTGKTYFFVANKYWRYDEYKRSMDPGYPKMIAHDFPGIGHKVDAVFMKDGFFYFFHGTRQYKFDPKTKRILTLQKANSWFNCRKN

MMP8 = MMP8 (human, UniProt P22894 101-467, limits assumed)
MMP13 = MMP13 (human, UniProt P45452 104-471, limits assumed)
MMP2 [2] = biological target: T4, MMP2 (human, UniProt P08253 110-660, limits assumed)
T4 sequence (looked up): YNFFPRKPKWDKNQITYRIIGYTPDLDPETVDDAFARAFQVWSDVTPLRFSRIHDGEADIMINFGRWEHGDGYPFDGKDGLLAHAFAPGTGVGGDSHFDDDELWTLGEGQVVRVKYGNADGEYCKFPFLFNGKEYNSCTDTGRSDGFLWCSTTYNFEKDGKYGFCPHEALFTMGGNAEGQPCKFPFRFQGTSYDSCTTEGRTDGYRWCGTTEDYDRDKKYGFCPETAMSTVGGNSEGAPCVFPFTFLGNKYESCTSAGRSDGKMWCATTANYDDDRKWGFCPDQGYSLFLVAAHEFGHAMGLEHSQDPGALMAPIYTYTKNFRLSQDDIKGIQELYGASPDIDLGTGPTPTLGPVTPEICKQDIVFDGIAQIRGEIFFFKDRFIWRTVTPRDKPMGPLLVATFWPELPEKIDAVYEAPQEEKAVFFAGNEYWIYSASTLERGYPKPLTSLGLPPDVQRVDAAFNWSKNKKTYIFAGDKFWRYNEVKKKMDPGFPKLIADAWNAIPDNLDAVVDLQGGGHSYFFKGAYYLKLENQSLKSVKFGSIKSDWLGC

MMP9 = MMP9 (human, UniProt P14780 107-707, limits assumed)
MMP3 = MMP3 (human, UniProt P08254 100-477, limits assumed)
Elastase [3] = biological target: Elastase
Cathepsin G = biological target: T5, Cathepsin G (UniProt P08311 21-244)
T5 sequence (looked up): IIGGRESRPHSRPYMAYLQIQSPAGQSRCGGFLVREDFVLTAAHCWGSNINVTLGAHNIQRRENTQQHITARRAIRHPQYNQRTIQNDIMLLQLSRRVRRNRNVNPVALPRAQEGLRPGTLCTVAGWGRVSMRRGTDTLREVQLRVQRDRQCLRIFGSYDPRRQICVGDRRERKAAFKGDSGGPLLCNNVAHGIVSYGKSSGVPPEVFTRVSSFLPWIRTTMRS

MMP7 = biological target: T6, MMP7 (UniProt P09237 95-267, limits assumed)
T6 sequence (looked up): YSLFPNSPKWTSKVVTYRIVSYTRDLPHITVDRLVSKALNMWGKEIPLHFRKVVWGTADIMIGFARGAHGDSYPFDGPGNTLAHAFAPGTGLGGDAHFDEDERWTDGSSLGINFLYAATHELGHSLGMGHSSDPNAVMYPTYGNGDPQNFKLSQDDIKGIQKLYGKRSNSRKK

Elastase [4] = biological target: Elastase; remark: listed apart in the source
MMP1 [5] = biological target: T3, MMP1; remark: listed apart in the source
MMP2 [6] = biological target: T4, MMP2; remark: listed apart in the source

Sequence of MMP9 (P14780 107-707 limits assumed): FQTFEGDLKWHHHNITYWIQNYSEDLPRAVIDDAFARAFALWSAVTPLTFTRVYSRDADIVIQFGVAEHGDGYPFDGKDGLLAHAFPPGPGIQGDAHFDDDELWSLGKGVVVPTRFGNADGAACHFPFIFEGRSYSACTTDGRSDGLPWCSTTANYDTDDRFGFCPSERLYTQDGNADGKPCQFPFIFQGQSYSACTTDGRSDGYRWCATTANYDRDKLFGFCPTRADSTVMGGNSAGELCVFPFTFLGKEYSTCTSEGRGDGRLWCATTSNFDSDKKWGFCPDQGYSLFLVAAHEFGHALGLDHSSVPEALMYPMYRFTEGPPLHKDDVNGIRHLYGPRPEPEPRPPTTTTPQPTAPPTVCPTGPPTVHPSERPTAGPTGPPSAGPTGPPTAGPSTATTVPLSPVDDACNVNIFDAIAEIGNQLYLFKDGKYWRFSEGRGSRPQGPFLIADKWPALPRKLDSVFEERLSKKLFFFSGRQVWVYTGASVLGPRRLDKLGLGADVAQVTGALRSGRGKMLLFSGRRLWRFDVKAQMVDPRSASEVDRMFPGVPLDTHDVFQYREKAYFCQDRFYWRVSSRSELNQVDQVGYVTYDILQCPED
Sequence of MMP8 (P22894 101-467 limits assumed): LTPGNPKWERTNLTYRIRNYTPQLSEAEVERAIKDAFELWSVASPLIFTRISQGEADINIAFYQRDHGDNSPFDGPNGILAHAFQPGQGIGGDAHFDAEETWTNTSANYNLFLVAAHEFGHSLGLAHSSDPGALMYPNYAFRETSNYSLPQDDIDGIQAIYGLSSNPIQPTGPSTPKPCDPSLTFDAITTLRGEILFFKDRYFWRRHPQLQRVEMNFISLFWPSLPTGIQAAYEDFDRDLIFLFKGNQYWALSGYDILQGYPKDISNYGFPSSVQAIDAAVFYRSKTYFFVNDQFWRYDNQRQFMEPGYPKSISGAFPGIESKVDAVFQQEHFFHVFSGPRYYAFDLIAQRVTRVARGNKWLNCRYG
Sequence of MMP3 (P08254 100-477 limits assumed): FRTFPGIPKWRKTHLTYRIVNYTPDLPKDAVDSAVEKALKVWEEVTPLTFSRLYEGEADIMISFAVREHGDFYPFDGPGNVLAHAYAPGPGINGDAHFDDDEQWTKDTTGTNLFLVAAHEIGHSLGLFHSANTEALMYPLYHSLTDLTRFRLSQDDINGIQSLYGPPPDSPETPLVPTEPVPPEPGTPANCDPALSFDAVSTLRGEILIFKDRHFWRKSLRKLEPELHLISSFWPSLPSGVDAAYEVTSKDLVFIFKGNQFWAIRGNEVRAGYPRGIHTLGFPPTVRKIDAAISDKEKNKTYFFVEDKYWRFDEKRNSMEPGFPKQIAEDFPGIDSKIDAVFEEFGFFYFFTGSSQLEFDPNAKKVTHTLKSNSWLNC

Binder | Protease Inhibition (% of WT) (ADAMTS4) | Protease Inhibition (% of WT) (ADAMTS5) | Protease Inhibition (% of WT) (MMP1 [1]) | Protease Inhibition (% of WT) (MMP8) | Protease Inhibition (% of WT) (MMP13) | Protease Inhibition (% of WT) (MMP2 [2]) | Protease Inhibition (% of WT) (MMP9) | Protease Inhibition (% of WT) (MMP3) | Protease Inhibition (% of WT) (Elastase [3]) | Protease Inhibition (% of WT) (Cathepsin G) | Protease Inhibition (% of WT) (MMP7) | Protease Inhibition (% of WT) (Elastase [4]) | Protease Inhibition (% of WT) (MMP1 [5]) | Protease Inhibition (% of WT) (MMP2 [6])
Variant A2M, bait region SEQ ID NO 15 (other) SVSGKPQYMVLVPSLLHTETTEKGCVLLSYLNETVTVSASLESVRGNRSLFTDLEAENDVLHCVAFAVPKSSSNEEVMFLTVQVKGPTQEFKKRTTVMVKNEDSLVFVQTDKSIYKPGQTVKFRVVSMDENFHPLNELIPLVYIQDPKGNRIAQWQSFQLEGGLKQFSFPLSSEPFQGSYKVVVQKKSGGRTEHPFTVEEFVLPKFEVQVTVPKIITILEEEMNVSVCGLYTYGKPVPGHVTVSICRKYSDASDCHGEDSQAFCEKFSGQLNSHGCFYQQVKTKVFQLKRKEYEMKLHTEAQIQEEGTVVELTGRQSSEITRTITKLSFVKVDSHFRQGIPFFGQVRLVDGKGVPIPNKVIFIRGNEANYYSNATTDEHGLVQFSINTTNVMGTSLTVRVNYKDRSPCYGYQWVSEEHEEAHHTAYLVFSPSKSFVHLEPMSHELPCGHTQTVQAHYILNGGTLLGLKKLSFYYLIMAKGGIVRTGTHGLLVKQEDMKGHFSISIPVKSDIAPVARLLIYAVLPTGDVIGDSAKYDVENCLANKVDLSFSPSQSLPASHAHLRVTAAPQSVCALRAVDQSVLLMKPDAELSASSVYNLLPEKDLTGFPGPLNDQDDEDCINRHNVYINGITYTPVSSTNEKDMYSFLEDMGLKAFTNSKIRKPKMCPQLEHGPEGEGEGEGIPENFFGVSEDLVVQISELEGRGSRYLTAVEEPHTKLRKYFPETWIWDLVVVNSAGVAEVGVTVPDTITEWKAGAFCLSEDAGLGISSTASLRAFQPFFVELTMPYSVIRGEAFTLKATVLNYLPKCIRVSVQLEASPAFLAVPVEKEQAPHCICANGRQTVSWAVTPKSLGNVNFTVSAEALESQELCGTEVPSVPEHGRKDTVIKPLLVEPEGLEKETTFNSLLCPSGGEVSEELSLKLPPNVVEESARASVSVLGDILGSAMQNTQNLLQMPYGCGEQNMVLFAPNIYVLDYLNETQQLTPEIKSKAIGYLNTGYQRQLNYKHYDGSYSTFGERYGRNQGNTWLTAFVLKTFAQARAYIFIDEAHITQALIWLSQRQKDNGCFRSSGSLLNNAIKGGVEDEVTLSAYITIALLEIPLTVTHPVVRNALFCLESAWKTAQEGDHGSHVYTKALLAYAFALAGNQDKRKEVLKSLNEEAVKKDNSVHWERPQKPKAPVGHFYEPQAPSAEVEMTSYVLLAYLTAQPAPTSEDLTSATNIVKWITKQQNAQGGFSSTQDTVVALHALSKYGAATFTRTGKAAQVTIQSSGTFSSKFQVDNNNRLLLQQVSLPELPGEYSMKVTGEGCVYLQTSLKYNILPEKEEFPFALGVQTLPQTCDEPKAHTSFQISLSVSYTGSRSASNMAIVDVKMVSGFIPLKPTVKMLERSNHVSRTEVSSNHVLIYLDKVSNQTLSLFFTVLQDVPVRDLKPAIVKVYDYYETDEFAIAEYNAPCSKDLGNADYKDDDDKGASHHHHHH | 83 % of WT | 183 % of WT | 116 % of WT | 77 % of WT | 143 % of WT | 59 % of WT | 41 % of WT | 40 % of WT | 115 % of WT | 139 % of WT | 157 % of WT |  |  | 
Variant A2M, bait region SEQ ID NO 129 (other) SVSGKPQYMVLVPSLLHTETTEKGCVLLSYLNETVTVSASLESVRGNRSLFTDLEAENDVLHCVAFAVPKSSSNEEVMFLTVQVKGPTQEFKKRTTVMVKNEDSLVFVQTDKSIYKPGQTVKFRVVSMDENFHPLNELIPLVYIQDPKGNRIAQWQSFQLEGGLKQFSFPLSSEPFQGSYKVVVQKKSGGRTEHPFTVEEFVLPKFEVQVTVPKIITILEEEMNVSVCGLYTYGKPVPGHVTVSICRKYSDASDCHGEDSQAFCEKFSGQLNSHGCFYQQVKTKVFQLKRKEYEMKLHTEAQIQEEGTVVELTGRQSSEITRTITKLSFVKVDSHFRQGIPFFGQVRLVDGKGVPIPNKVIFIRGNEANYYSNATTDEHGLVQFSINTTNVMGTSLTVRVNYKDRSPCYGYQWVSEEHEEAHHTAYLVFSPSKSFVHLEPMSHELPCGHTQTVQAHYILNGGTLLGLKKLSFYYLIMAKGGIVRTGTHGLLVKQEDMKGHFSISIPVKSDIAPVARLLIYAVLPTGDVIGDSAKYDVENCLANKVDLSFSPSQSLPASHAHLRVTAAPQSVCALRAVDQSVLLMKPDAELSASSVYNLLPEKDLTGFPGPLNDQDDEDCINRHNVYINGITYTPVSSTNEKDMYSFLEDMGLKAFTNSKIRKPKMCPQLEQYEMHGPEAIPMSIPTEGEGEGEGIPENFFGVSEDLVVQIVEEPHTKLRKYFPETWIWDLVVVNSAGVAEVGVTVPDTITEWKAGAFCLSEDAGLGISSTASLRAFQPFFVELTMPYSVIRGEAFTLKATVLNYLPKCIRVSVQLEASPAFLAVPVEKEQAPHCICANGRQTVSWAVTPKSLGNVNFTVSAEALESQELCGTEVPSVPEHGRKDTVIKPLLVEPEGLEKETTFNSLLCPSGGEVSEELSLKLPPNVVEESARASVSVLGDILGSAMQNTQNLLQMPYGCGEQNMVLFAPNIYVLDYLNETQQLTPEIKSKAIGYLNTGYQRQLNYKHYDGSYSTFGERYGRNQGNTWLTAFVLKTFAQARAYIFIDEAHITQALIWLSQRQKDNGCFRSSGSLLNNAIKGGVEDEVTLSAYITIALLEIPLTVTHPVVRNALFCLESAWKTAQEGDHGSHVYTKALLAYAFALAGNQDKRKEVLKSLNEEAVKKDNSVHWERPQKPKAPVGHFYEPQAPSAEVEMTSYVLLAYLTAQPAPTSEDLTSATNIVKWITKQQNAQGGFSSTQDTVVALHALSKYGAATFTRTGKAAQVTIQSSGTFSSKFQVDNNNRLLLQQVSLPELPGEYSMKVTGEGCVYLQTSLKYNILPEKEEFPFALGVQTLPQTCDEPKAHTSFQISLSVSYTGSRSASNMAIVDVKMVSGFIPLKPTVKMLERSNHVSRTEVSSNHVLIYLDKVSNQTLSLFFTVLQDVPVRDLKPAIVKVYDYYETDEFAIAEYNAPCSKDLGNADYKDDDDKGASHHHHHH |  |  |  |  |  |  |  |  |  |  |  | 75 % of WT | 200 % of WT | 20 % of WT
